For one substance, OD results are on record in patent publication US20240352105A1, “COMPOSITIONS AND METHODS FOR NEUTRALIZING ANTIGENS” (PACAGEN, INC, priority 2023, published 2024).

Assay [1] has as its target Can f2-sumo-His (dog (Canis familiaris)) (UniProt O18874). Nature of the assay: serum ELISA, 1:32k, Alpaca 2 block. Background: ELISA stands for enzyme-linked immunosorbent assay.
Assay [2] addresses recombinant His-tagged Can f2 (dog (Canis familiaris)) (UniProt O18874). Description: serum ELISA, 1:32k, Alpaca 2 block.
Assay [3] concerns the target T1, recombinant His-tagged Der p2 (dust mite, UniProt P49278 18-146).
T1 construct: also called Der p2-His; Der p2-HIS; not shown: His tag
T1 sequence (looked up): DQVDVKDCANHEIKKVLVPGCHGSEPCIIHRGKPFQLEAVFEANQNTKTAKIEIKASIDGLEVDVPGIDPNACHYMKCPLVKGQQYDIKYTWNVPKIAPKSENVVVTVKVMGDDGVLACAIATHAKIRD
Nature of the assay: serum ELISA, 1:32k, Alpaca 2 block.

Assay [4] addresses recombinant His-tagged Can f1 (dog (Canis familiaris)) (UniProt O18873). Description: serum ELISA, 1:32k, Alpaca 2 block.
In assay [5] the target is Can f2-sumo-His (dog (Canis familiaris)) (UniProt O18874). Nature of the assay: serum ELISA, 1:64K, Alpaca 2 block.
Chain of Can f2-sumo-His (dog (Canis familiaris)) (O18874 19-180): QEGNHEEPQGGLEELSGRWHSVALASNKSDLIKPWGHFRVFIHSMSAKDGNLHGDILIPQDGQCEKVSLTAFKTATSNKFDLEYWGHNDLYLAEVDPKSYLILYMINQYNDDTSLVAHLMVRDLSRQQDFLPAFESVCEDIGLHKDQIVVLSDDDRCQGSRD
The target in assay [6] is recombinant His-tagged Can f2 (dog (Canis familiaris)) (UniProt O18874). Description: serum ELISA, 1:64K, Alpaca 2 block.
Chain of recombinant His-tagged Can f2 (dog (Canis familiaris)) (O18874 19-180 limits assumed): as the sequence (O18874 19-180) above
Assay [7] concerns the target T1, recombinant His-tagged Der p2. Description: serum ELISA, 1:64K, Alpaca 2 block.
The target of assay [8] is recombinant His-tagged Can f1 (dog (Canis familiaris)) (UniProt O18873). Nature of the assay: serum ELISA, 1:64K, Alpaca 2 block.
Chain of recombinant His-tagged Can f1 (dog (Canis familiaris)) (O18873 19-174 limits assumed): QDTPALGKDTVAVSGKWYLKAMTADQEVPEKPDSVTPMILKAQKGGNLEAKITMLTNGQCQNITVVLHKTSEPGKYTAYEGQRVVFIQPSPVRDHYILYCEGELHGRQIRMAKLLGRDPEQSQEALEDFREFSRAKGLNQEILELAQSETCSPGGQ
Assay [9] addresses Can f2-sumo-His (dog (Canis familiaris)) (UniProt O18874). Description: serum ELISA, 1:1K, Alpaca 1 block.
In assay [10] the target is recombinant His-tagged Can f2 (dog (Canis familiaris)) (UniProt O18874). Description: serum ELISA, 1:1K, Alpaca 1 block.
Assay [11] concerns the target T1, recombinant His-tagged Der p2. Nature of the assay: serum ELISA, 1:1K, Alpaca 1 block.
Assay [12] deals with recombinant His-tagged Can f1 (dog (Canis familiaris)) (UniProt O18873). Description: serum ELISA, 1:1K, Alpaca 1 block.
Assay [13] addresses Can f2-sumo-His (dog (Canis familiaris)) (UniProt O18874). Nature of the assay: serum ELISA, 1:2K, Alpaca 1 block.
Assay [14] concerns the target T1, recombinant His-tagged Der p2. Description: serum ELISA, 1:2K, Alpaca 1 block.
In assay [15] the target is Can f2-sumo-His (dog (Canis familiaris)) (UniProt O18874). Nature of the assay: serum ELISA, 1:1K, Alpaca 2 block.
The target of assay [16] is recombinant His-tagged Can f2 (dog (Canis familiaris)) (UniProt O18874). Nature of the assay: serum ELISA, 1:1K, Alpaca 2 block.
In assay [17] the target is T1, recombinant His-tagged Der p2. Description: serum ELISA, 1:1K, Alpaca 2 block.
Assay [18] deals with recombinant His-tagged Can f1 (dog (Canis familiaris)) (UniProt O18873). Description: serum ELISA, 1:1K, Alpaca 2 block.

Values joined by “and” are separate entries in the source; they are usually repeats but may differ in a detail not shown here. Identical values can stand only once.

On to Negative serum taken from naïve alpacas, for which the OD at 450 nm was 0.071 OD and 0.061 OD in assay [1]; 0.075 OD and 0.068 OD in assay [2]; 0.082 OD in assay [3]; 0.091 OD and 0.093 OD in assay [4]; 0.07 OD and 0.057 OD in assay [5]; 0.07 OD and 0.062 OD in [6]. Besides, the OD at 450 nm is 0.071 OD and 0.079 OD in assay [7]; 0.088 OD and 0.087 OD in assay [8]; 0.119 OD and 0.111 OD in assay [9]; 0.128 OD and 0.133 OD in assay [10]; 0.246 OD and 0.255 OD in assay [11]; 0.294 OD and 0.342 OD in assay [12]. Besides, the OD at 450 nm is 0.088 OD and 0.085 OD in assay [13]; 0.149 OD and 0.154 OD in [14]; 0.186 OD and 0.181 OD in assay [15]; 0.227 OD and 0.241 OD in assay [16]; 0.201 OD and 0.19 OD in assay [17]; 0.228 OD and 0.218 OD in assay [18].
